Several values for one entry are separate records, joined by “and”; a condition that tells them apart may be missing. Identical values can stand only once.
Legend:
[1] = target: T1, hTfR (human transferrin receptor, source and construct not stated) (human, UniProt P02786 89-760, limits assumed); assay: SPR (BioRad ProteOn XPR36), mAb captured on Protein A, hTfR as analyte, 25 C
Procedure, shortened: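 Antibodies at 2 ug/ml were captured on a Protein A GLM chip for 40 s. hTfR was injected as analyte from 43 nM in a 3-fold series, 2 min association and 1 h dissociation. Run at 25 degrees C in HEPES/150 mM NaCl pH 7.4 with tween-20 and 0.2 mg/ml BSA.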

[2] = target: T1, hTfR (human transferrin receptor, …); assay: ELISA; ratio of the Kd on HFE-captured hTfR to the Kd on directly coated hTfR
[3] = target: T2, recombinant human transferrin receptor protein (Sino Biological 11020-H07H) (human, UniProt P02786 89-760); assay: ELISA on plate-coated recombinant human TfR1 (CD71); fit: specific binding with Hill slope
T2 construct: Bought protein coated on ELISA plates; also called recombinant human TfR1; human TfR1
T2 sequence (P02786 89-760 limits assumed): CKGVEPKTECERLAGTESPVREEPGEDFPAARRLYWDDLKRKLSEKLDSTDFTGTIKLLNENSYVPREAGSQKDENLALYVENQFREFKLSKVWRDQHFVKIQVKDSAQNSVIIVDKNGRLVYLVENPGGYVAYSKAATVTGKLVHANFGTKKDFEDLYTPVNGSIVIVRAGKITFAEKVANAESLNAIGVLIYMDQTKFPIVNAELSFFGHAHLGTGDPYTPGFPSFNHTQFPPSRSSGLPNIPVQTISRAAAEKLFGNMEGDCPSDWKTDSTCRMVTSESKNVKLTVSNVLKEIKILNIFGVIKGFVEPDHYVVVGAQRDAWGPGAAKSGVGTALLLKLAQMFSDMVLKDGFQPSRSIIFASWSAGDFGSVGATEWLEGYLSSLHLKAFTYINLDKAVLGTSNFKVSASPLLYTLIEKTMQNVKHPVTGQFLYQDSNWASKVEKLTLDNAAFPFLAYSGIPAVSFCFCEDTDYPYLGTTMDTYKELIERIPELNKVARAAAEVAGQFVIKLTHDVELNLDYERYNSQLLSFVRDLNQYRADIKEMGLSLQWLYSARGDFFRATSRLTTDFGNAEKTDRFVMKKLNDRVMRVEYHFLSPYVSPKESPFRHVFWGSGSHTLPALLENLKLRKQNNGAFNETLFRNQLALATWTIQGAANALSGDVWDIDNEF
Description: Half-well high-binding 96-well plates (Costar #3690) were coated with recombinant human transferrin receptor protein (Sino Biological 11020-H07H) or recombinant cyno transferrin receptor protein (Sino Biological 90253-C07H) at 1 ng/μL in PBS (Gibco 14190) and incubated overnight at 4° C. Plates were washed four times with 100 μL of Tris buffered saline+Tween (20×TBST, Cell Signaling 9997S). 100 μL of Superblock (ThermoFisher PI-37535) was added to each well and incubated for 1 hour at room temperature. The wash step was repeated before the addition of the samples. Samples were added at concentrations up to 10 nM, 50 μL/well. Plates were incubated for another hour at room temp and wash step repeated. Secondary antibody (Peroxidase AffiniPure Goat Anti-Human IgG, Fcγ Fragment Specific, Jackson Immunoresearch, 109-035-098) was diluted 1:5000 in Superblock and 50 μL/well added. Plates were incubated for 1 hour at room temperature and washed one more time. Binding was measured by the addition of 50 μL of 1-Step™ Ultra TMB-ELISA (ThermoFisher, 34028), incubated for 5 minutes, and the reaction was stopped with the addition of 25 μL of Stop Solution 2N sulfuric Acid (R&D Systems DY994). Absorbance was measured at 450 nm, with reference wavelength 570 nm subtracted. Binding constants were determined using GraphPad Prism Specific Binding with Hill Slope.

[4] = target: T1, hTfR (human transferrin receptor, …); assay: SPR (BioRad ProteOn XPR36), average of the three 13E4_WT runs, mAb captured on Protein A, hTfR as analyte, 25 C
Description: (§1) The binding kinetics of nine exemplary humanized anti-TfR antibodies and the parent chimeric antibody were characterized. Studies were run on a BioRad ProteOn XPR36 optical biosensor using a GLM sensor chip coated with Protein A for mAb capture. Running buffer included 10 mM EPES, 150 mM NaCl, pH 7.4 with 0.05 tween-20 with 0.2 mg/ml BSA. Data were collected at 25 degrees C. All mAbs were diluted into running buffer to 2 ug/ml based on the stock concentration provided. Each was then captured for 40 seconds over a Protein A surface.
(§2) hTfR (100 ug) was dissolved into […] of water to yield a 4.3 uM stock concentration. hTfR was dilted to 43 nM as the highest concentration and tested in a 3 fold dilution series. hTfR was injected at 200 ul/min for 2 minutes followed by a one-hour dissociation phase.

[5] = target: T1, hTfR (human transferrin receptor, …); assay: ELISA, biotinylated antibody on hTfR captured by plate-coated HFE (HFE+TfR); fit: specific binding with Hill slope
[6] = target: T1, hTfR (human transferrin receptor, …); assay: SPR (BioRad ProteOn XPR36), average of the three 13E4_WT runs, mAb captured on Protein A, hTfR as analyte, 25 C; Average (n = 3) of the three 13E4_WT runs
Description: as §1, §2

T1 sequence (P02786 89-760 limits assumed): as above

kon [1]: 1.06e+06 M⁻¹ s⁻¹ and 903000 M⁻¹ s⁻¹ and 840000 M⁻¹ s⁻¹ | Kd(HFE+TfR)/Kd(TfR) [2]: 16.9 | Bmax [3]: 98.3 % max binding | Kd [3]: 6.2 pM | h [3]: 1.18 | Kd [4]: 1.1 pM | koff [4]: 1e-06 s⁻¹ | Bmax [5]: 2.88 A450 | Kd [5]: 286 pM | h [5]: 1.54 | kon [6]: 900000 M⁻¹ s⁻¹
B1: 13E4_WT (parent chimeric anti-TfR antibody) (antibody, V domains shown)
VH: QVQLQQPGAELVKPGASVKLSCKASGYTFTNYWMHWVKQRPGQGLEWIGEINPINGRSNYGERFKTKATLTVDKSSSTAYMQLSSLTSEDSAVYYCARGTRAMHYWGQGTSVTVSS
VL: DIQMTQSPASLSVSVGETVTITCRTSENIYNNLAWYQQKQGKSPQLLVYAATNLADGVPSRFSGSGSGTQYSLKINSLQSEDFGNYYCQHFWGTPLTFGAGTKLELK
notes: also called 13E4_WT 1st; 13E4_WT 2nd

Source: US20200325237A1 (AVIDITY BIOSCIENCES, published 2020)
